According to paper PMC2965686:

Experiments:
Assay in all cases: FRET or BRET
[1] = molecular target: YFP-Spo21 (S. cerevisiae) (UniProt Q12411)
[2] = molecular target: Mpc54-YFP (S. cerevisiae) (UniProt Q08550)
[3] = molecular target: YFP-Cnm67 (S. cerevisiae) (UniProt P53865)
[4] = molecular target: Spo21-YFP (S. cerevisiae) (UniProt Q12411)

Sequence of UniProt Q08550 (Q08550 whole entry): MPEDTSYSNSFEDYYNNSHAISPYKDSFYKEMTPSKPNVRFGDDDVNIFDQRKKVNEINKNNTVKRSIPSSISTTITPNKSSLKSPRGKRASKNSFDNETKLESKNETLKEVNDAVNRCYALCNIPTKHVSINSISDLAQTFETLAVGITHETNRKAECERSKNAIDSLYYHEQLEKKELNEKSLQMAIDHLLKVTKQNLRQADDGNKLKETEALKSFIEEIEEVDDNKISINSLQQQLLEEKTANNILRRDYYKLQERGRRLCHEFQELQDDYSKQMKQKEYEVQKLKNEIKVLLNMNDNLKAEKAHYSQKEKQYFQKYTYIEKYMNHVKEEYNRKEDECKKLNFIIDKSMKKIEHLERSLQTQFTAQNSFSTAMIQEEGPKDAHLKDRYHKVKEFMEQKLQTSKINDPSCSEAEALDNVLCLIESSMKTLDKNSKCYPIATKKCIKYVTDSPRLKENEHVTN
Sequence of UniProt P53865 (P53865 whole entry): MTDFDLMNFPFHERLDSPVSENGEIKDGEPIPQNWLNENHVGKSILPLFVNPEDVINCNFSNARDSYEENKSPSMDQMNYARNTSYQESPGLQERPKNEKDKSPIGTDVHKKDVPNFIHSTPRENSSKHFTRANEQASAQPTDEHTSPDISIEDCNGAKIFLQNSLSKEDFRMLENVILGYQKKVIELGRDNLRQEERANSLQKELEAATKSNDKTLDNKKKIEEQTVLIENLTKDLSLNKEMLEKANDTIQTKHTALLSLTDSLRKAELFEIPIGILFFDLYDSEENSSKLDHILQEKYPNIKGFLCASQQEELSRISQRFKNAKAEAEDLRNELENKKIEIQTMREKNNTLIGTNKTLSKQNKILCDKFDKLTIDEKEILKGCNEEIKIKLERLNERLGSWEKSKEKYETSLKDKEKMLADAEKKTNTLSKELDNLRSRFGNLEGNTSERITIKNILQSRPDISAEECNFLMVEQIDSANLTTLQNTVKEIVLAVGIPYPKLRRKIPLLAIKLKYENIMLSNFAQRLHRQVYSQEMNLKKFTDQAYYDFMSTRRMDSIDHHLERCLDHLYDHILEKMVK

**Q.** With “CFP-Mpc54 (from UniProt Q08550 1-464) (natural protein)” as the substance, how does the FretR [1] read?
**A.** The FretR was 1.23.

**Q.** With “Mpc54-CFP (from UniProt Q08550 1-464) (natural protein)” as the substance, how does the FretR [2] read?
**A.** Its FretR is 1.26.

**Q.** What about the FretR [3] of the same substance?
**A.** Its FretR is 1.35.

**Q.** For “Spo21-CFP (from UniProt Q12411 1-609) (natural protein)”, which FretR [2] is on record?
**A.** The FretR was 1.24.

**Q.** And the FretR [3]?
**A.** Its FretR is 1.47.

**Q.** What about the FretR [4] of the same substance?
**A.** Its FretR is 1.34.
